Reference: IntAct's records for PubMed 26840340

B1: Islet amyloid polypeptide (Homo sapiens), P10997 (parent)
chain: MGILKLQVFLIVLSVALNHLKATPIESHQVEKRKCNTATCATQRLANFLVHSSNNFGAILSSTNVGSNTYGKRNAVEVLKREPLNYLPL

Variants of: B1
Settings: with bace1_human BACE1, P56817
Chain of bace1_human BACE1, P56817 (P56817 whole entry): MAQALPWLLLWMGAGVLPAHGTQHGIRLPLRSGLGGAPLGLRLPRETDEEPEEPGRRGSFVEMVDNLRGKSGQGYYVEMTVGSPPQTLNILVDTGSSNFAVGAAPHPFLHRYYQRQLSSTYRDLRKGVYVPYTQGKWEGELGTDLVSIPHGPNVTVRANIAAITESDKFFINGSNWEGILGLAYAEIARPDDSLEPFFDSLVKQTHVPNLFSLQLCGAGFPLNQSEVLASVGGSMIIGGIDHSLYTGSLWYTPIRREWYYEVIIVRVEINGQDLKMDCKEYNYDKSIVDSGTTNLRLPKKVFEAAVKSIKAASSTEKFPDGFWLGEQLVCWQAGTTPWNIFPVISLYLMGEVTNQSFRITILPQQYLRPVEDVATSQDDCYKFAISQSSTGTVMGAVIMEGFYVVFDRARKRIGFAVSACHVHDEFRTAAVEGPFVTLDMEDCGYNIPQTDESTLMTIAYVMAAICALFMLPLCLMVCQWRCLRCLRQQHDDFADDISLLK

Row | effect of a mutation on the interaction | Variant
1 | with no effect | F56K
